How the values were obtained:
[1] = biological target: Purified PCSK9 carrying a C-terminal FLAG tag (UniProt Q8NBP7); test: AlphaScreen PCSK9-FLAG/His-LDLR; non-specific control; log[antibody] ug/ml -1.51377
[2] = biological target: Purified PCSK9 carrying a C-terminal FLAG tag (UniProt Q8NBP7); test: AlphaScreen PCSK9-FLAG/His-LDLR; non-specific control; log[antibody] ug/ml 1.826075
[3] = biological target: Purified PCSK9 carrying a C-terminal FLAG tag (UniProt Q8NBP7); test: AlphaScreen PCSK9-FLAG/His-LDLR; non-specific control; log[antibody] ug/ml 0.394711
[4] = biological target: Purified PCSK9 carrying a C-terminal FLAG tag (UniProt Q8NBP7); test: AlphaScreen PCSK9-FLAG/His-LDLR; non-specific control; log[antibody] ug/ml -0.55953
[5] = biological target: Purified PCSK9 carrying a C-terminal FLAG tag (UniProt Q8NBP7); test: AlphaScreen PCSK9-FLAG/His-LDLR; non-specific control; log[antibody] ug/ml -2.46802
[6] = biological target: Purified PCSK9 carrying a C-terminal FLAG tag (UniProt Q8NBP7); test: AlphaScreen PCSK9-FLAG/His-LDLR; non-specific control; log[antibody] ug/ml 1.348954
[7] = biological target: Purified PCSK9 carrying a C-terminal FLAG tag (UniProt Q8NBP7); test: AlphaScreen PCSK9-FLAG/His-LDLR; non-specific control; log[antibody] ug/ml -1.9909
[8] = biological target: Purified PCSK9 carrying a C-terminal FLAG tag (UniProt Q8NBP7); test: AlphaScreen PCSK9-FLAG/His-LDLR; non-specific control; log[antibody] ug/ml 0.871832
[9] = biological target: Purified PCSK9 carrying a C-terminal FLAG tag (UniProt Q8NBP7); test: as above; remark: listed apart in the source
[10] = biological target: Purified PCSK9 carrying a C-terminal FLAG tag (UniProt Q8NBP7); test: AlphaScreen PCSK9-FLAG/His-LDLR; non-specific control; log[antibody] ug/ml 1.826075; remark: listed apart in the source
[11] = biological target: Purified PCSK9 carrying a C-terminal FLAG tag (UniProt Q8NBP7); test: AlphaScreen PCSK9-FLAG/His-LDLR; non-specific control; log[antibody] ug/ml -2.94514
[12] = biological target: Purified PCSK9 carrying a C-terminal FLAG tag (UniProt Q8NBP7); test: AlphaScreen PCSK9-FLAG/His-LDLR; non-specific control; log[antibody] ug/ml -1.9909; remark: listed apart in the source
[13] = biological target: Purified PCSK9 carrying a C-terminal FLAG tag (UniProt Q8NBP7); test: AlphaScreen PCSK9-FLAG/His-LDLR; non-specific control; log[antibody] ug/ml 1.348954; remark: listed apart in the source
[14] = biological target: Purified PCSK9 carrying a C-terminal FLAG tag (UniProt Q8NBP7); test: AlphaScreen PCSK9-FLAG/His-LDLR; non-specific control; log[antibody] ug/ml -1.03665
[15] = biological target: Purified PCSK9 carrying a C-terminal FLAG tag (UniProt Q8NBP7); test: AlphaScreen PCSK9-FLAG/His-LDLR; non-specific control; log[antibody] ug/ml -2.46802; remark: listed apart in the source
[16] = biological target: Purified PCSK9 carrying a C-terminal FLAG tag (UniProt Q8NBP7); test: AlphaScreen PCSK9-FLAG/His-LDLR; non-specific control; log[antibody] ug/ml -0.08241
[17] = biological target: Purified PCSK9 carrying a C-terminal FLAG tag (UniProt Q8NBP7); test: as above; remark: listed apart in the source
[18] = biological target: Purified PCSK9 carrying a C-terminal FLAG tag (UniProt Q8NBP7); test: AlphaScreen PCSK9-FLAG/His-LDLR; non-specific control; log[antibody] ug/ml -1.03665; remark: listed apart in the source
[19] = biological target: Purified PCSK9 carrying a C-terminal FLAG tag (UniProt Q8NBP7); test: AlphaScreen PCSK9-FLAG/His-LDLR; non-specific control; log[antibody] ug/ml 0.394711; remark: listed apart in the source
[20] = biological target: Purified PCSK9 carrying a C-terminal FLAG tag (UniProt Q8NBP7); test: AlphaScreen PCSK9-FLAG/His-LDLR; non-specific control; log[antibody] ug/ml -1.51377; remark: listed apart in the source
[21] = biological target: Purified PCSK9 carrying a C-terminal FLAG tag (UniProt Q8NBP7); test: AlphaScreen PCSK9-FLAG/His-LDLR; non-specific control; log[antibody] ug/ml -0.55953; remark: listed apart in the source
[22] = biological target: mouse liver LDL receptor (C57BL/6j mice) (mouse) (UniProt P35951); test: cell-based or functional assay
[23] = biological target: T1, Purified PCSK9 carrying a C-terminal FLAG tag (UniProt Q8NBP7 31-692); test: AlphaScreen, inhibition of PCSK9-Flag/His-tagged LDL receptor interaction, relative to no antibody
T1 construct: also called PCSK9-FLAG; PCSK9-Flag; not shown: C-terminal FLAG tag
Protocol: (§1) This technique required that “donor” and “acceptor” beads be brought into proximity via protein—protein interaction, resulting in increased luminescence (Ullman et al., Proc. Nat. Acad. Sci. (1994) 91:5426-5430). […] About 2.5 μl of biotinylated anti-Flag-M2 antibody (1.8 μg/ml) was added and the mixture incubated for 1 hour. Afterward 5 μl of streptavidin donor bead and nickel chelate acceptor bead (1:1 mixture) was added and the assay incubated overnight. AlphaScreen signal (counts per second) was analyzed using an EnVision microplate reader (Perkin-Elmer). All data points were determined in triplicate. Assays were carried out at 23° C. in buffer containing 25 mM HEPES, 0.1 M NaCl, pH 7.4, 0.1% BSA. The inhibition assays were determined similarly with slight adjustments to assay volumes and protein concentrations.

[24] = biological target: T1, Purified PCSK9 carrying a C-terminal …; test: AlphaScreen, inhibition of PCSK9-Flag/His-tagged LDL receptor interaction
Protocol: as §1

mouse liver LDL receptor (C57BL/6j mice) (mouse), sequence (P35951 22-862): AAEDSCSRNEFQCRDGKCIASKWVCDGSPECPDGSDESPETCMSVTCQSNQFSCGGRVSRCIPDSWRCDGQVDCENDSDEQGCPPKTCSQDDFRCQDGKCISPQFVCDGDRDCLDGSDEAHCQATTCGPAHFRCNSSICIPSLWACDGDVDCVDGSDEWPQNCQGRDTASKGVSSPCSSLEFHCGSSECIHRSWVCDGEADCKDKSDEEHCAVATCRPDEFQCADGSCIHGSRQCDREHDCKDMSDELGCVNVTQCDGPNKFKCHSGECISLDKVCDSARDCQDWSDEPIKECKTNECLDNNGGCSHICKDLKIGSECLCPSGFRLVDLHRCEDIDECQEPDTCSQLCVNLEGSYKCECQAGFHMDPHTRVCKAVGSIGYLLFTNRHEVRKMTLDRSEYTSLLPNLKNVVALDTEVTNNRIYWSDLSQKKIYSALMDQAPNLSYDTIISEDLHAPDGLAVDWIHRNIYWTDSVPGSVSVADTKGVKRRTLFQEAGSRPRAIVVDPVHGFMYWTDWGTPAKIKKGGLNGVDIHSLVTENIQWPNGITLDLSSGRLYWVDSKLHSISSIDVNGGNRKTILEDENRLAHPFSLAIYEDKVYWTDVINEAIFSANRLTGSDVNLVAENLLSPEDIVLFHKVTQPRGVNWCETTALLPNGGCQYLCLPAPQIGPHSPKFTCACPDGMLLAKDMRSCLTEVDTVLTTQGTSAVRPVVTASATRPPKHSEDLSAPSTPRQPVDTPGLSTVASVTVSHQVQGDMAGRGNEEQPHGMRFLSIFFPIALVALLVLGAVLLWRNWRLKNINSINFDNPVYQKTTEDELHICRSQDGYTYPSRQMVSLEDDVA
T1 sequence (Q8NBP7 31-692 limits assumed): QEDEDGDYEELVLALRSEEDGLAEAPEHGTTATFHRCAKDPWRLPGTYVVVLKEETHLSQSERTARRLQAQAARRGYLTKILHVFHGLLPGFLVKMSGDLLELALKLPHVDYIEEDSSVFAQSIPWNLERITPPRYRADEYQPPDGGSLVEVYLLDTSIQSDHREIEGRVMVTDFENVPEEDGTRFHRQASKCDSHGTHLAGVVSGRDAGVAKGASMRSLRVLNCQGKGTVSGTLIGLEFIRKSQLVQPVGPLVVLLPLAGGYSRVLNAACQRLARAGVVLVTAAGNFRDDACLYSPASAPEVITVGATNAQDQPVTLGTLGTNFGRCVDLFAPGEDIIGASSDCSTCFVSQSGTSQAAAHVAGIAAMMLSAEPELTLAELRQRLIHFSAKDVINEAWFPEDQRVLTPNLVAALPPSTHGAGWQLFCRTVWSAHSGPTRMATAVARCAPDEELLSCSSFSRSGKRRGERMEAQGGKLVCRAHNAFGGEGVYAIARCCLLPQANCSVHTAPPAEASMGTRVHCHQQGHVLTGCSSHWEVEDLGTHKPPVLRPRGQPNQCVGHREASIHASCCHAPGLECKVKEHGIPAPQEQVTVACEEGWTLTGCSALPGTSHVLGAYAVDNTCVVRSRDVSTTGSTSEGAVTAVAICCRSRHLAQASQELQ
Purified PCSK9 carrying a C-terminal FLAG tag (UniProt Q8NBP7), sequence (Q8NBP7 31-692 limits assumed): as above

Molecule: non-specific IgG control (antibody)
- AlphaScreen mean counts [1]: 134000 counts
- AlphaScreen mean counts [2]: 114000 counts
- AlphaScreen mean counts [3]: 136000 counts
- AlphaScreen mean counts [4]: 139000 counts
- AlphaScreen mean counts [5]: 140000 counts
- AlphaScreen mean counts [6]: 74400 counts
- AlphaScreen mean counts [7]: 135000 counts
- AlphaScreen mean counts [8]: 140000 counts
- AlphaScreen mean counts [9]: 79600 counts
- AlphaScreen mean counts [10]: 61900 counts
- AlphaScreen mean counts [11]: 82100 counts
- AlphaScreen mean counts [12]: 80700 counts
- AlphaScreen mean counts [13]: 135000 counts
- AlphaScreen mean counts [14]: 127000 counts
- AlphaScreen mean counts [15]: 78200 counts
- AlphaScreen mean counts [16]: 140000 counts
- AlphaScreen mean counts [17]: 82800 counts
- AlphaScreen mean counts [18]: 84400 counts
- AlphaScreen mean counts [19]: 79600 counts
- AlphaScreen mean counts [20]: 83100 counts
- AlphaScreen mean counts [21]: 88100 counts

Molecule: human PCSK9 Protein (injected intravenously into mice) (from UniProt Q8NBP7 31-692)
- Mean liver LDLR/GAPDH, mice given Saline and PCSK9 (western blot, lightest exposure) [22]: 0.081 AU

Molecule: human PCSK9 Protein (injected intravenously into mice) (from UniProt Q8NBP7 31-692) (enzyme)
- % Change of mean liver LDLR/GAPDH against saline only, mice given Saline and PCSK9 (darker exposure) [22]: -78.8%
- % Change of mean liver LDLR/GAPDH against saline only, mice given Saline and PCSK9 (lightest exposure) [22]: -82%
- Mean liver LDLR/GAPDH, mice given Saline and PCSK9 (western blot, darker exposure of LDLR panel) [22]: 0.123 AU

B1: 77D10 anti-PCSK9 antibody (IgG2b) (antibody, V domains shown)
VH: EVQLQQSGAELVRSGASVKLSCTTSGFNIKDYYIHWVKQRPEQGLEWIGWIDPENGDTEYAPKFQGKATMTADTSSNTAYLQLSSLTSADTAVYYCNAYYRYDDGTWFPYWGQGTLVTVSA
VL: DIQLTQSPASLSASVGETVTITCRASGNIHSYLAWYQQKQGKSPQFLVDNAKTLPDGVPSRFSVSGSGTQYSLKINSLQPEDFGTYYCQHFWNTPWTFGGGTKLEIKR
- % inhibition at 450 nM of antibody [23]: 62%
- IC50 [24]: 38 nM

B2: 75B9 anti-PCSK9 antibody (IgG2a) (antibody, V domains shown)
VH: EVQLQQSGADLVKPGASVKLSCTASGFNIKDTYIHWVKQRPEQGLEWIGRIDPANGHTEYDPKFQGRATLTTDTSSNTAYLQLFSLTSEDSAVYFCARSYYGSIFAYWGQGTLVTVSA
VL: QIVLTQSPAIMSASPGEKVTISCSASSSVSYLFWYQQKPGSSPKPWIFRTSYLASGVPARFSGSGSGTSFSLTISSMEAEDAATYYCHQYHTYPPTFGGGTKLEIKR
- % inhibition at 450 nM of antibody [23]: 100%
- IC50 [24]: 0.5 nM

B3: 11B5 anti-PCSK9 antibody (IgG2a) (antibody, V domains shown)
VH: EVQLQQSGAELVKPGASVTLSCTASGFNIKDTYMHWVNQRPEQGLVWIGRIDPANGHTEYDPKFQDKATITTDTSSNTAYLHLSSLTSGDTAVYYCARSYFGSIFAYWGQGTLVTVSA
VL: QIVLTQSPAIMSASPGEKVTISCSASSSVSYLYWYQQKPGSSPKPWIFRSSHRASGVPARFSGSGSGTSYSLTISSMEAEDAATYYCHQYQSYPPTFGGGTKLEIKR
- % inhibition at 450 nM of antibody [23]: 100%
- IC50 [24]: 0.4 nM

B4: 29C10 anti-PCSK9 antibody (IgG2a) (antibody, V domains shown)
VH: EVLLQQSVAELVRPGASVRLSCTASGFNIKDTYIHWVRQRPEQGLEWFGWIDPANGYTKYAPNFQGKATLTTDTSSNTAYLHLSSLTSEDSAIYYCARGYYRYYSLDYWGQGTSVTVSS
VL: DIQMTQTTSSLSASLGDRVTISCRASQDISNYLNWYQQKPDGTVKLLIYYSSRLHSGVPSRFSGRGSGTDYSLTISTLEQEDIATYFCQQGKTLPLTFGAGTKLELKR
- % inhibition at 450 nM of antibody [23]: 71%
- IC50 [24]: 13 nM

— patent publication US20140161798A1 (Merck Sharp & Dohme, published 2014)
